Experiments:
Pyk1 [1] = biological target: T1, Pyk1 (Streptomyces coelicolor, UniProt Q9S2I9); test: pyruvate kinase activity assay, purified enzyme, Hill or Michaelis-Menten fit; type: biochemical; conditions: activator; PEP and ADP concentrations not told; read-out: No AMP / Pyk1
T1 construct: E. coli codon-optimized gene; E. coli Origami B host
T1 sequence (Q9S2I9 1-478): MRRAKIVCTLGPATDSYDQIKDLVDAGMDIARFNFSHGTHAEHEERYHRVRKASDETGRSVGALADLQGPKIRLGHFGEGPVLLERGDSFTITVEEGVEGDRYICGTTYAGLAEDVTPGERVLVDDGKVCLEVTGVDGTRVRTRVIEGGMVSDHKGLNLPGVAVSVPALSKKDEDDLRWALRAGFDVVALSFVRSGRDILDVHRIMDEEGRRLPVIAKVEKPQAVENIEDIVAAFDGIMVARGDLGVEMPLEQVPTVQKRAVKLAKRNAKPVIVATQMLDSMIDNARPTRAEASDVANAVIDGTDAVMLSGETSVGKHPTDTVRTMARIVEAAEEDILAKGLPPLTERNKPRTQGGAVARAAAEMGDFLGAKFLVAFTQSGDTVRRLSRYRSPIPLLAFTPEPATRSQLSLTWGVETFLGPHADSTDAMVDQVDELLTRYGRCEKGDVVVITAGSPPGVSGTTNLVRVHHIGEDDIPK
Text: pyruvate kinase activity assay, purified enzyme, Hill or Michaelis-Menten fit on Pyk1

Pyk2 = biological target: T2, Pyk2 (Streptomyces coelicolor, UniProt Q9L299); test: as above; type: biochemical; conditions: activator; PEP and ADP concentrations not told; read-out: No AMP / Pyk2
T2 construct: native gene; E. coli Rosetta host
T2 sequence (Q9L299 1-476): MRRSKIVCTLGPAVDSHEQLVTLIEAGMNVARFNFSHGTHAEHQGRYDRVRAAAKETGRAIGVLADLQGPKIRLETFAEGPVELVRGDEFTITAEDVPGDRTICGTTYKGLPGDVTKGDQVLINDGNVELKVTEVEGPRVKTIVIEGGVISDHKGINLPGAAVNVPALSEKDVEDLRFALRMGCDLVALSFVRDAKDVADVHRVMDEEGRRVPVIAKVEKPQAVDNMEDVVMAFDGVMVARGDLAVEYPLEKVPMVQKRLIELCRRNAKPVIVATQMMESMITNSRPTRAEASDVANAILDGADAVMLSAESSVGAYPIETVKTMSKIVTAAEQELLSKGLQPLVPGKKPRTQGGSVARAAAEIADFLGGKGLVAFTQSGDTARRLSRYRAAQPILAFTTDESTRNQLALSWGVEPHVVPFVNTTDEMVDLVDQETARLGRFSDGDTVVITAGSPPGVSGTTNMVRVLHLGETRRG
Text: pyruvate kinase activity assay, purified enzyme, Hill or Michaelis-Menten fit on Pyk2

Pyk1 [2] = biological target: T1, Pyk1; test: pyruvate kinase activity assay, purified enzyme; type: biochemical; conditions: activator
[3] = substrate: C=C(OP(=O)(O)O)C(=O)O; test: pyruvate kinase activity assay, purified enzyme, Hill fit; type: biochemical, Streptomyces coelicolor; conditions: 1.5 mM ADP; no AMP; cooperative, Hill coefficient 1.5
Text: pyruvate kinase activity assay, purified enzyme, Hill fit on Pyk2

[4] = substrate: Nc1ncnc2c1ncn2[C@@H]1O[C@H](COP(=O)(O)OP(=O)(O)O)[C@@H](O)[C@H]1O; test: pyruvate kinase activity assay, purified enzyme, Michaelis-Menten fit; type: biochemical, Streptomyces coelicolor; conditions: 5 mM PEP; no AMP; Michaelis-Menten-type kinetics
Text: pyruvate kinase activity assay, purified enzyme, Michaelis-Menten fit on Pyk2

[5] = substrate: C=C(OP(=O)(O)O)C(=O)O; test: pyruvate kinase activity assay, purified enzyme, Hill fit; type: biochemical, Streptomyces coelicolor; conditions: 1.5 mM ADP; no AMP; cooperative, Hill coefficient 3.7
Text: pyruvate kinase activity assay, purified enzyme, Hill fit on Pyk1

[6] = substrate: Nc1ncnc2c1ncn2[C@@H]1O[C@H](COP(=O)(O)OP(=O)(O)O)[C@@H](O)[C@H]1O; test: pyruvate kinase activity assay, purified enzyme, Michaelis-Menten fit; type: biochemical, Streptomyces coelicolor; conditions: 5 mM PEP; no AMP; Michaelis-Menten-type kinetics; remark: listed apart in the source
Text: pyruvate kinase activity assay, purified enzyme, Michaelis-Menten fit on Pyk1

Nc1ncnc2c1ncn2[C@@H]1O[C@H](COP(=O)(O)O)[C@@H](O)[C@H]1O [AMP]
EC50 (Pyk1 [1]): 0.01 mM | EC50 (Pyk2): 3.8 mM

O=P(O)(O)OC[C@H]1OC(O)[C@H](O)[C@@H]1O (stereo partly shown) [ribose-5-phosphate]
pyruvate kinase activity assay, purified enzyme (Pyk1 [2]): Pyk1 was also shown to be highly stimulated by ribose-5-phosphate

B1: Pyk2 (Streptomyces coelicolor A3(2)) (protein)
chain: MRRSKIVCTLGPAVDSHEQLVTLIEAGMNVARFNFSHGTHAEHQGRYDRVRAAAKETGRAIGVLADLQGPKIRLETFAEGPVELVRGDEFTITAEDVPGDRTICGTTYKGLPGDVTKGDQVLINDGNVELKVTEVEGPRVKTIVIEGGVISDHKGINLPGAAVNVPALSEKDVEDLRFALRMGCDLVALSFVRDAKDVADVHRVMDEEGRRVPVIAKVEKPQAVDNMEDVVMAFDGVMVARGDLAVEYPLEKVPMVQKRLIELCRRNAKPVIVATQMMESMITNSRPTRAEASDVANAILDGADAVMLSAESSVGAYPIETVKTMSKIVTAAEQELLSKGLQPLVPGKKPRTQGGSVARAAAEIADFLGGKGLVAFTQSGDTARRLSRYRAAQPILAFTTDESTRNQLALSWGVEPHVVPFVNTTDEMVDLVDQETARLGRFSDGDTVVITAGSPPGVSGTTNMVRVLHLGETRRG
notes: native gene; E. coli Rosetta host
K0.5 [3]: 1.3 mM | kcat/Km [3]: 14000 M⁻¹ s⁻¹ | K0.5 [4]: 0.3 mM | kcat/Km [4]: 145000 M⁻¹ s⁻¹

B2: Pyk1 (Streptomyces coelicolor A3(2)) (protein)
chain: MRRAKIVCTLGPATDSYDQIKDLVDAGMDIARFNFSHGTHAEHEERYHRVRKASDETGRSVGALADLQGPKIRLGHFGEGPVLLERGDSFTITVEEGVEGDRYICGTTYAGLAEDVTPGERVLVDDGKVCLEVTGVDGTRVRTRVIEGGMVSDHKGLNLPGVAVSVPALSKKDEDDLRWALRAGFDVVALSFVRSGRDILDVHRIMDEEGRRLPVIAKVEKPQAVENIEDIVAAFDGIMVARGDLGVEMPLEQVPTVQKRAVKLAKRNAKPVIVATQMLDSMIDNARPTRAEASDVANAVIDGTDAVMLSGETSVGKHPTDTVRTMARIVEAAEEDILAKGLPPLTERNKPRTQGGAVARAAAEMGDFLGAKFLVAFTQSGDTVRRLSRYRSPIPLLAFTPEPATRSQLSLTWGVETFLGPHADSTDAMVDQVDELLTRYGRCEKGDVVVITAGSPPGVSGTTNLVRVHHIGEDDIPK
notes: E. coli codon-optimized gene; E. coli Origami B host
K0.5 [5]: 3.5 mM | Vmax [5]: 14.1 µmol/min/mg | kcat [5]: 350 s⁻¹ | kcat/Km [5]: 100000 M⁻¹ s⁻¹ | K0.5 [6]: 0.6 mM | kcat/Km [6]: 1.59e+06 M⁻¹ s⁻¹
